What was measured:
Assay in all cases: cell-based or functional assay
[1] = target: spike protein of live SARS-CoV-2 (2019-nCoV/IDF0372/2020) (SARS-CoV-2, UniProt P0DTC2 14-1273)
[2] = target: T1, SARS-CoV-2 spike protein, wild type (Wuhan) (SARS-CoV-2, UniProt P0DTC2 14-1273)
[3] = target: T1, SARS-CoV-2 spike protein, wild type …; remark: listed apart in the source
[4] = target: SARS-CoV-2 spike protein variant B.1.351 (SARS-CoV-2, UniProt P0DTC2 14-1273)
[5] = target: SARS-CoV-2 spike protein N501Y (SARS-CoV-2, UniProt P0DTC2 14-1273)
[6] = target: SARS-CoV-2 spike protein E484K (SARS-CoV-2, UniProt P0DTC2 14-1273)
[7] = target: SARS-CoV-2 spike protein K417E (SARS-CoV-2, UniProt P0DTC2 14-1273)
[8] = target: SARS-CoV-2 spike protein Y453F (SARS-CoV-2, UniProt P0DTC2 14-1273)
[9] = target: SARS-CoV-2 spike protein D614G (SARS-CoV-2, UniProt P0DTC2 14-1273)
[10] = target: SARS-CoV-2 spike protein S477N (SARS-CoV-2, UniProt P0DTC2 14-1273)
[11] = target: SARS-CoV-2 spike protein N439K (SARS-CoV-2, UniProt P0DTC2 14-1273)
[12] = target: SARS-CoV-2 spike protein T478I (SARS-CoV-2, UniProt P0DTC2 14-1273)
[13] = target: SARS-CoV-2 spike protein P479S (SARS-CoV-2, UniProt P0DTC2 14-1273)
[14] = target: SARS-CoV-2 spike protein V483A (SARS-CoV-2, UniProt P0DTC2 14-1273)
[15] = target: SARS-CoV-2 spike protein F486V (SARS-CoV-2, UniProt P0DTC2 14-1273)
[16] = target: SARS-CoV-2 spike protein Q493K (SARS-CoV-2, UniProt P0DTC2 14-1273)
[17] = target: SARS-CoV-2 spike protein F490S (SARS-CoV-2, UniProt P0DTC2 14-1273)
[18] = target: T1, SARS-CoV-2 spike protein, wild type …; remark: listed apart in the source

| Binder | protection of Vero E6 cells from SARS-CoV-2 cytopathic effect [1] | VSV-SARS-CoV-2 IC50 [2] | VSV Pseudotype Neutralization Assay IC50 [3] | VSV Pseudotype Neutralization Assay IC50 [4] | VSV Pseudotype Neutralization Assay IC50 [5] | VSV Pseudotype Neutralization Assay IC50 [6] | VSV Pseudotype Neutralization Assay IC50 [7] | VSV Pseudotype Neutralization Assay IC50 [8] | VSV Pseudotype Neutralization Assay IC50 [9] | VSV Pseudotype Neutralization Assay IC50 [10] | VSV Pseudotype Neutralization Assay IC50 [11] | VSV Pseudotype Neutralization Assay IC50 [12] | VSV Pseudotype Neutralization Assay IC50 [13] | VSV Pseudotype Neutralization Assay IC50 [14] | VSV Pseudotype Neutralization Assay IC50 [15] | VSV Pseudotype Neutralization Assay IC50 [16] | VSV Pseudotype Neutralization Assay IC50 [17] | IC50, SARS-CoV-2 VSV pseudovirus neutralization (luciferase) [18] |
| --- | --- | --- | --- | --- | --- | --- | --- | --- | --- | --- | --- | --- | --- | --- | --- | --- | --- | --- |
| vS07_23E04 (designed binder, also called R3c) MRGSHHHHHHGSDLGKKLLQAARAGQLDEVRELLKAGADVNAKDQEGITPLHVAAHQGHLEIVEVLLKAGADVNAKDVWGRTPLHLAAWRGHLEIVEVLLKAGADVNAKDHAGATPLHAAALSGHLEIVEVLLKAGADVNAQDKSGKTPADLAARAGHQDIAEVLQKAA | 20 nM | < 2 nM | 13.3 ng/mL | > 100 ng/mL | 27.8 ng/mL | > 100 ng/mL | 3.6 ng/mL | 3.3 ng/mL | 23 ng/mL | 9 ng/mL | 12.9 ng/mL | 16.7 ng/mL | 27.6 ng/mL | 21.3 ng/mL | > 100 ng/mL | 45.8 ng/mL | 8.1 ng/mL |  |
| vS07_12C06 (designed binder, also called R1b; Rb1) MRGSHHHHHHGSDLGKKLLQAARAGQLDEVRELLKAGADVNAKDREGKTPLHVAAQEGHLEIVEVLLKAGADVNAKDVWGRTPLHLAAWIGHLEIVEVLLKAGADVNAKDVSGATPLHAAALHGHLEIVEVLLNAGADVNAQDKSGKTPADLAARAGHQDIAEVLQKAA | 2 nM | < 2 nM | 2.1 ng/mL | 26 ng/mL | 4.8 ng/mL | 10.2 ng/mL | 1 ng/mL | 5.9 ng/mL | 6.2 ng/mL | 2 ng/mL | 5.3 ng/mL | 3.1 ng/mL | 2.3 ng/mL | 8.4 ng/mL | > 100 ng/mL | 28.2 ng/mL | 1.7 ng/mL |  |
| vS07_29B10 (designed binder, also called R3b) MRGSHHHHHHGSDLGKKLLQAARAGQLDEVRELLKAGADVNAKDREGITPLHLAAQHGHLEIVEVLLKAGADVNAKDVWGRTPLHLAAWQGHLEIVEVLLKAGADVNAKDLAGATPLHVAALYGHLEIVEVLLKAGADVNAQDKSGKTPADLAARAGHQDIAEVLQKAA | 20 nM | < 2 nM | 7.2 ng/mL | 76 ng/mL | 9.1 ng/mL | 64.2 ng/mL | 1.8 ng/mL | 10.9 ng/mL | 11.9 ng/mL | 3 ng/mL | 7.3 ng/mL | 11.2 ng/mL | 7.2 ng/mL | 21.8 ng/mL | > 100 ng/mL | 30 ng/mL | 2.3 ng/mL |  |
| ALE033 (designed binder) MRGSHHHHHHGSDLGKKLLEAARAGQDDEVRELLKAGADVNAKDYFSHTPLHLAARNGHLKIVEVLLKAGADVNAKDFAGKTPLHLAANEGHLEIVEVLLKAGADVNAQDIFGKTPADIAADAGHEDIAEVLQKAAGSPTPTPTTPTPTPTTPTPTPTGSDLGKKLLEAARAGQDDEVRELLKAGADVNAKDYFSHTPLHLAARNGHLKIVEVLLKAGADVNAKDFAGKTPLHLAANEGHLEIVEVLLKAGADVNAQDIFGKTPADIAADAGHEDIAEVLQKAAGSPTPTPTTPTPTPTTPTPTPTGSDLGKKLLQAARAGQLDEVRELLKAGADVNAKDREGITPLHLAAQHGHLEIVEVLLKAGADVNAKDVWGRTPLHLAAWQGHLEIVEVLLKAGADVNAKDLAGATPLHVAALYGHLEIVEVLLKAGADVNAQDKSGKTPADLAARAGHQDIAEVLQKAAGSPTPTPTTPTPTPTTPTPTPTGSDLGKKLLQAARAGQLDEVRELLKAGADVNAKDREGKTPLHVAAQEGHLEIVEVLLKAGADVNAKDVWGRTPLHLAAWIGHLEIVEVLLKAGADVNAKDVSGATPLHAAALHGHLEIVEVLLNAGADVNAQDKSGKTPADLAARAGHQDIAEVLQKAAGSPTPTPTTPTPTPTTPTPTPTGSDLGKKLLQAARAGQLDEVRELLKAGADVNAKDREGITPLHLAAQHGHLEIVEVLLKAGADVNAKDVWGRTPLHLAAWQGHLEIVEVLLKAGADVNAKDLAGATPLHVAALYGHLEIVEVLLKAGADVNAQDKSGKTPADLAARAGHQDIAEVLQKAA |  |  |  |  |  |  |  |  |  |  |  |  |  |  |  |  |  | 0.125 nM |
| ALE038 (designed binder) MRGSHHHHHHGSDLGKKLLEAARAGQDDEVRELLKAGADVNAKDYFSHTPLHLAARNGHLKIVEVLLKAGADVNAKDFAGKTPLHLAANEGHLEIVEVLLKAGADVNAQDIFGKTPADIAADAGHEDIAEVLQKAAGSPTPTPTTPTPTPTTPTPTPTGSDLGKKLLEAARAGQDDEVRELLKAGADVNAKDYFSHTPLHLAARNGHLKIVEVLLKAGADVNAKDFAGKTPLHLAANEGHLEIVEVLLKAGADVNAQDIFGKTPADIAADAGHEDIAEVLQKAAGSPTPTPTTPTPTPTTPTPTPTGSDLGKKLLQAARAGQLDEVRELLKAGADVNAKDREGKTPLHVAAQEGHLEIVEVLLKAGADVNAKDVWGRTPLHLAAWIGHLEIVEVLLKAGADVNAKDVSGATPLHAAALHGHLEIVEVLLNAGADVNAQDKSGKTPADLAARAGHQDIAEVLQKAAGSPTPTPTTPTPTPTTPTPTPTGSDLGKKLLQAARAGQLDEVRELLKAGADVNAKDREGITPLHLAAQHGHLEIVEVLLKAGADVNAKDVWGRTPLHLAAWQGHLEIVEVLLKAGADVNAKDLAGATPLHVAALYGHLEIVEVLLKAGADVNAQDKSGKTPADLAARAGHQDIAEVLQKAAGSPTPTPTTPTPTPTTPTPTPTGSDLGHKLLLAAQAGQDDEVRILLAAGADVNAKDVFGQTPLHVAAVAGHLEIVEVLLKAGADVNAKDSIGYTPLHHAARVGHLEIVEVLLKAGADVNAQDWIGITPADLAAFEGHEDIAEVLQKAA |  |  |  |  |  |  |  |  |  |  |  |  |  |  |  |  |  | 0.264 nM |
| vS07_19G10 (designed binder, also called R2a) MRGSHHHHHHGSDLGNKLLDAAWVGQDDEVRILLAAGADVNAKDWQGETPLHLAATKGHLEIVEVLLKAGADVNAKDVVGYTPLHVAASQGHLEIVEVLLKAGADVNAQDVHGYTPADLAAQAGHEDIAEVLQKAA | 100 nM |  |  |  |  |  |  |  |  |  |  |  |  |  |  |  |  |  |
| vS07_14G03 (designed binder, also called S2a) MRGSHHHHHHGSDLGQKLLHAAQYGQDDEVRILLAAGADVNAKDKQGNTPLHIAAFHGHLEIVEVLLKAGADVNAKDQWGLTPLHLAAAWGHLEIVEVLLKAGADVNAQDNYGQTPADLAAESGHEDIAEVLQKAA |  | < 100 nM |  |  |  |  |  |  |  |  |  |  |  |  |  |  |  |  |
| ALE030 (designed binder) MRGSHHHHHHGSDLGKKLLEAARAGQDDEVRELLKAGADVNAKDYFSHTPLHLAARNGHLKIVEVLLKAGADVNAKDFAGKTPLHLAANEGHLEIVEVLLKAGADVNAQDIFGKTPADIAADAGHEDIAEVLQKAAGSPTPTPTTPTPTPTTPTPTPTGSDLGKKLLEAARAGQDDEVRELLKAGADVNAKDYFSHTPLHLAARNGHLKIVEVLLKAGADVNAKDFAGKTPLHLAANEGHLEIVEVLLKAGADVNAQDIFGKTPADIAADAGHEDIAEVLQKAAGSPTPTPTTPTPTPTTPTPTPTGSDLGKKLLQAARAGQLDEVRELLKAGADVNAKDREGITPLHLAAQHGHLEIVEVLLKAGADVNAKDVWGRTPLHLAAWQGHLEIVEVLLKAGADVNAKDLAGATPLHVAALYGHLEIVEVLLKAGADVNAQDKSGKTPADLAARAGHQDIAEVLQKAAGSPTPTPTTPTPTPTTPTPTPTGSDLGNKLLDAAWVGQDDEVRILLAAGADVNAKDWQGETPLHLAATKGHLEIVEVLLKAGADVNAKDVVGYTPLHVAASQGHLEIVEVLLKAGADVNAQDVHGYTPADLAAQAGHEDIAEVLQKAAGSPTPTPTTPTPTPTTPTPTPTGSDLGKKLLQAARAGQLDEVRELLKAGADVNAKDREGKTPLHVAAQEGHLEIVEVLLKAGADVNAKDVWGRTPLHLAAWIGHLEIVEVLLKAGADVNAKDVSGATPLHAAALHGHLEIVEVLLNAGADVNAQDKSGKTPADLAARAGHQDIAEVLQKAA |  |  |  |  |  |  |  |  |  |  |  |  |  |  |  |  |  | 0.119 nM |
